Laboratory results: PMC12742838, “Discovery and structural investigation of Varicella-Zoster virus gE-neutralizing antibodies isolated from a convalescent patient” (Protein & Cell, 2025)

B1: Fab WLL-1 (Fab, V domains shown)
VH: QITLKESGPTLVKPTQTLTLTCTFSGFSLTNTEMTVGWIRRPPGKALEWLALIYWDDDKRYSPSLRSRLTITKDTSKNQVVLKMTNMDPVDTATYYCARLSLRLLTFDYWGQGTLVTVSS
VL: SYVVTQPPSVSVAPRQTARITCGGSNIGSKSVHWHQQKPGQAPVLVVYDDSDRPSGIPERFSGSNSGNTATLTITRVEAGDEADYYCQVWDSSGDHPLFGGGTKLTVL
B2: Fab WLL-28 (Fab, V domains shown)
VH: EVQLVQSGAEVKKPGEPLKISCKASGYNFANFWVGWVRQMPGRGLEWMGVIFPADSDTRYSPSFQGQVIISADKSTNTAYLQWSSLKASDSAMYYCARHVRGSLWGGGGYWGQGTLVTVSS
VL: EIVMTQSPSTLSVSPGEGATLSCRASQSVNNDLAWYQQKPGQAPRLLINGASTRATGIPARFTGSGSGTEFTLTISSLQPEDFAVYFCQQYNDWPRTFGQGTKVEIK
B3: Varicella-zoster virus glycoprotein E (gE), recombinant protein, tag not told for these experiments (natural protein)
chain: SVLRYDDFHTDEDKLDTNSVYEPYYHSDHAESSWVNRGESSRKAYDHNSPYIWPRNDYDGFLENAHEHHGVYNQGRGIDSGERLMQPTQMSAQEDLGDDTGIHVIPTLNGDDRHKIVNVDQRQYGDVFKGDLNPKPQGQRLIEVSVEENHPFTLRAPIQRIYGVRYTETWSFLPSLTCTGDAAPAIQHICLKHTTCFQDVVVDVDCAENTKEDQLAEISYRFQGKKEADQPWIVVNTSTLFDELELDPPEIEPGVLKVLRTEKQYLGVYIWNMRGSDGTSTYATFLVTWKGDEKTRNPTPAVTPQPRGAEFHMWNYHSHVFSVGDTFSLAMHLQYKIHEAPFDLLLEWLYVPIDPTCQPMRLYSTCLYHPNAPQCLSHMNSGCTFTSPHLAQRVASTVYQNCEHADNYTAYCLGISHMEPSFGLILHDGGTTLKFVDTPESLSGLYVFVVYFNGHVEAVAYTVVSTVDHFVNAIEERGFPPTAGQPPATTKPKEITPVNPGTSPLLR
notes: glycoprotein E (gE) of Varicella-zoster virus; Methods are in the Supplementary Materials; also called gE protein

Assays:
[1] = biological target: T1, Varicella-zoster virus glycoprotein E (gE), recombinant protein, tag not told for these experiments (Varicella-zoster virus, UniProt P09259); experiment: cryo-EM structure; ternary complex Fab WLL-1/Fab WLL-28/gE, resolved at 3.36 Å; only the gI-binding domain of gE is seen; details: both partners purified
T1 construct: glycoprotein E (gE) of Varicella-zoster virus; Methods are in the Supplementary Materials; also called gE protein

[2] = biological target: T2, recombinant soluble insulin-degrading enzyme (rIDE, residues 42-1,019) (UniProt P14735 42-1019); experiment: SPR; dissociation constant of gE to rIDE; details: both partners purified
T2 construct: insulin-degrading enzyme (IDE), cellular receptor of VZV gE, residues 42-1,019; Tags and host are probably in the Supplementary Materials; also called rIDE receptor protein; source: recombinant, purified

Binder | binding result [1] | Kd [2]
B1 | binds | –
B2 | binds | –
B3 | – | ~10 nM
